These results are taken from US20170159020A1.

The target in assay [1] is α6β1 integrin (UniProt P23229). As to the kind of experiment: solid-phase integrin binding assay: 511E8 coated on plate, 10 nM α6β1 integrin, A490.
The target of assay [2] is α6β1 integrin (UniProt P23229). Put plainly: solid-phase integrin binding assay: 521E8 coated on plate, 10 nM α6β1 integrin, A490.

Sequence of UniProt P23229 (P23229 other isoform, or with tags, fused parts or gaps limits assumed, chain 1 of 2): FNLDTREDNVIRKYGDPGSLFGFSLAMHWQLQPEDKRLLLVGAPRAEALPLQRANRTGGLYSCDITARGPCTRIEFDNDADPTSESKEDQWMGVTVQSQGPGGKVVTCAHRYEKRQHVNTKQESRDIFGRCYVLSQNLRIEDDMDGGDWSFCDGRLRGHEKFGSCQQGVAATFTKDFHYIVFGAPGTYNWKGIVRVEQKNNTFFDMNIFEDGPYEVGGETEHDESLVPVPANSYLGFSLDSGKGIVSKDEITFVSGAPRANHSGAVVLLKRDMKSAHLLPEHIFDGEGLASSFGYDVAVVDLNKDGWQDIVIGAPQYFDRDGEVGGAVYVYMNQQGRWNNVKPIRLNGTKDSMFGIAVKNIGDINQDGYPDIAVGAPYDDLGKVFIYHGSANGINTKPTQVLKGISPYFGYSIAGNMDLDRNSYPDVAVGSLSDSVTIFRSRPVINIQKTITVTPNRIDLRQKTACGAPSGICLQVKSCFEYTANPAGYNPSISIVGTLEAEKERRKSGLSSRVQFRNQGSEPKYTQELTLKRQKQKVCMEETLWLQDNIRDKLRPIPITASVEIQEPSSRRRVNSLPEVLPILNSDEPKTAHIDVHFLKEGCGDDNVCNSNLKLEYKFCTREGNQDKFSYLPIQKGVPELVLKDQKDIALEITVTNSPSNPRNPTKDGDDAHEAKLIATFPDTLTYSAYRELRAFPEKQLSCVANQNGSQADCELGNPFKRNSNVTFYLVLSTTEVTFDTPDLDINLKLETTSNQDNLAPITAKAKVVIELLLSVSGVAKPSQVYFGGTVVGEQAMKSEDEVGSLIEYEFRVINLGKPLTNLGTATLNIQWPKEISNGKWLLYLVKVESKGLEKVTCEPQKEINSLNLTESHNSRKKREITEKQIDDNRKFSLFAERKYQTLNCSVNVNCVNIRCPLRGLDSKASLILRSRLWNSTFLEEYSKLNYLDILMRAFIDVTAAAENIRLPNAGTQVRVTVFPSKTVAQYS
Sequence of UniProt P23229 (P05556 21-728 limits assumed, chain 2 of 2, further chain): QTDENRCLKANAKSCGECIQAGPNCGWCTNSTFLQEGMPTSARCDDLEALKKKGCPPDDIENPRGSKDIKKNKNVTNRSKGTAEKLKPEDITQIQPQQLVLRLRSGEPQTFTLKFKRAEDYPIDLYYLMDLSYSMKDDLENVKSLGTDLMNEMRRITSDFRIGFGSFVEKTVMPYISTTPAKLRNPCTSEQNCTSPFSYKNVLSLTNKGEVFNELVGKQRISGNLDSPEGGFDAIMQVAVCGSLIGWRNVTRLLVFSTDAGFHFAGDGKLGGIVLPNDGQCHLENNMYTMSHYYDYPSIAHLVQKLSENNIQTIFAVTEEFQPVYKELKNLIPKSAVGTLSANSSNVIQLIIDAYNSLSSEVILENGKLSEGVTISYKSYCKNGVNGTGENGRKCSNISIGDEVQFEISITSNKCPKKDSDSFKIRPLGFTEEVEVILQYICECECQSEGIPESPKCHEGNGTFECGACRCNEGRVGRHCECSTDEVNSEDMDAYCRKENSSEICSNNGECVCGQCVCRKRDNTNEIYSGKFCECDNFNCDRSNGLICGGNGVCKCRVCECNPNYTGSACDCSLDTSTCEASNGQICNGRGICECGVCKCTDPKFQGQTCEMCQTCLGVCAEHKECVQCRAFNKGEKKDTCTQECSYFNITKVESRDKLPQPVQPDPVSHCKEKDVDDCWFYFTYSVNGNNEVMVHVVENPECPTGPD

For the substance “Human recombinant laminin 511E8 (from UniProt O15230 2534-3327; P07942 1561-1786; P11047 1362-1608) (ligand)”, in the assay with α6β1 integrin [1], the fold increase in integrin binding activity by addition of gelatin (500 µg/mL by context) to the coating solution, against 511E8 coated alone, at 2.7 nM 511E8 was more than 2 fold; the increase in integrin binding activity by addition of 50 µg/mL HSA to the coating solution, against 511E8 coated alone amounted to 10%; the increase in integrin binding activity by addition of 50 µg/mL gelatin to the coating solution, against 511E8 coated alone fell in the range of 20 to 60%; the increase in integrin binding activity by addition of HSA (500 µg/mL by context) to the coating solution, against 511E8 coated alone, at 2.7 nM 511E8 was more than 80%.

As to “Human recombinant laminin 521E8 (from UniProt O15230 2534-3327; P55268 1573-1798; P11047 1362-1608) (ligand)”, in the assay with α6β1 integrin [2], the increase in integrin binding activity by addition of 50 µg/mL HSA to the coating solution, against 521E8 coated alone was 10 to 20%; the increase in integrin binding activity by addition of 50 µg/mL gelatin to the coating solution, against 521E8 coated alone fell in the range of 10 to 60%; the increase in integrin binding activity by addition of 500 µg/mL HSA to the coating solution, against 521E8 coated alone, at 2.7 nM 521E8 is more than 60%; the increase in integrin binding activity by addition of gelatin (500 µg/mL by context) to the coating solution, against 521E8 coated alone, at 2.7 nM 521E8 is more than 80%.
